Data published in the RNAGym collection of RNA variant scans (doi:10.1073/pnas.2313332121).

B1: TPR t1 (parent)
chain: GACCAAUCUGCCCUCAGAGCUCGAGAACAUCUUCGGAUGCAGAGGAGGCAGGCUUCGGUGGCGCGAUAGCGCCAACGUCCUCAACCUCCAAUGCAUCCCACCACAUGAUGAUGCCUGAAGAGCCUUGGUUUUUUG

Variants of: B1
Experiment: polymerase ribozyme fitness, log enrichment relative to wild type (log ratio); higher = more active; in vitro selection for triplet polymerase activity
Outline: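 For each subunit of a heterodimeric triplet polymerase ribozyme, a mutant library was built by PCR and transcribed, then taken through a single in vitro selection round in triplicate. Selection involved annealing to a biotinylated primer, the partner subunit and triplets, incubation frozen at −7 °C, gel excision of extended constructs, capture on streptavidin beads and RT-PCR. Genotypes were retained after Illumina sequencing of inputs and outputs only with ≥10 input reads and ≥1 read in each output. Fitness is defined as the logarithm of a genotype's enrichment relative to wild-type enrichment, using inverse-variance-weighted averages across replicates, with the logarithm taken to base 2.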

In order of rising “polymerase ribozyme fitness (log ratio)” value:
1. GACCAAUCUGCCCUCAGAGCUCGAGAACAUCUUCGGAUGCAGAGGAAGCAGGCUUCGGUGGUGCGAUAGCGCCAACGUCCUCAACCUCCAAUGCAUCCCACCACAUGAUGACGUCUGGAGAGCCUUGGUUUUUUG [G47A C62U U112C C114U A118G]  -3.76
2. GACCAAUCUGCCCUCAGAGCUCGAGAACAUCUUCGGAUGCAGAGGAAGCAGGCUUCGGUGGCGCGAUGGCGCCAACGUCCUCAACCUCCAAUGCAUCCCACCACAUGAUGAUGCCUGAAGAGCCUUGGUUUUUUG [G47A A68G]  -3.62
3. GACCAAUCUGCCCUCAGAGCUCGAGAACAUCUUCGGAUGCAGAGGUGGCAGGCUUCGGUGGCGCGAUAGCGCCAACGUCCUCAACCUCCAAUGCAUCCCACCACAUGAUGAUGCCUGAAGAGCCUUGUUUUUUUG [A46U G128U]  -3.23
4. GACCAAUCUGCCCUCAGAGCUCGAGAACAUCUUCGGAUGCAGAGGUGGCAGGCUUCGGUGGCGCGAUAGCGCCAACGUCCUCAACCUCCAAUGCACCCCACCACAUGAUGAUGCUUGAAGAGCCUUGGUUUUUUG [A46U U96C C115U]  -2.77
5. GACCAAUCUGCCCUCAGAGCUCGAGAACAUCUUCGGAUGCAGAGGUGGCAGGCUUCGGUGGCGCGAUAGCGCCAACGUCCUCAACCUCCAAUGCAUCCCACCACAUGAUGAUGCCUGAAGAGCCUUCGUUUUUUG [A46U G127C]  -2.68
6. GACCAAUCUGCCCUCAGAGCUCGAGAACAUCUUCGGAUGCAGAGGUGGCAGGCUUCGGUGGCGCGAUAGCGCCAACGUCCUCAACCUCCAAUGCAUCCCACCACAUGAUGAUGCCUGAAGAGCCUUUGUUUUUUG [A46U G127U]  -2.62
7. GACCAAUCUGCCCUCAGAGCUCGAGAACAUCUUCGGAUGCAGAGGAAGCUGGCUUCUGUGGCGCGAUAGCGCCAACGUCCUAAACCUCCAAUGCAUCCCACCACAUGAUGAUGCCUGAAGAGCCUUGGUUUUUUG [G47A A50U G57U C82A]  -2.37
8. GACCAAUCUGCCCUCAGAGCUCGAGAACAUCUUCGGAUGCAGAGGUGGCAGGCUUCGGUGGCGCGAUAGCGCCAACGUCCUCAACCUCCAAUGCAUCCCACCACAUGAUGAUGCCUGAAGAACCUUGGUUUUUUG [A46U G122A]  -2.16
9. GACCAAUCUGCCCUCAGAGCUCGAGAACAUCUUCGGAUGCAGAGGUGGCAGGCUUCGGUGGCGCGAUAGCGCCAACGUCCUCAACCUCCAAUGCAUCCCACCACAUGAUGAUGCCUCAAGAGCCUUGGUUUUUUG [A46U G117C]  -1.89
10. GACCAAUCUGCCCUCAGAGCUCGAGAACAUCUUCGGAUGCAGAGGUGGCAGGCUUCGGUGGCGCGAUAGCGCCAACGUCCUCAACCUCCAAUGCAACCCACCACAUGAUGAUGCCUGAAGAGCCUUGGUUUUUUG [A46U U96A]  -1.81
11. GACCAAUCUGCCCUCAGAGCUCGAGAACAUCUUCGGAUGCAGAGGAAGCAGGCUUCGGUGGCGCGAUAGAGCCAACGUCCUCAACCUCCAAUGCAUCCCAUCACAUGAUGAUGCCUGAAGAGCCUUGGUUUUUUG [G47A C70A C101U]  -1.81
12. GACCAAUCUGCCCUCAGAGCUCGAGAACAUCUUCGGAUGCAGAGGUGGCAGGCUUCGGUGGCGCGAUAGCGCCAACGUCCUCAACCUCCAAUGCAUCCCACCACAUGAUGAUGCCUGAAGAGCCUUGGUGUUUUG [A46U U130G]  -1.6
13. GACCAAUCUGCCCUCAGAGCUCGAGAACAUCUUCGGAUGCAGAGGAAGCAGGCUUGGGUGGCGCGAUAGCGCCAACGUCCUCAACCUCCAAUGCAUCCCACCACAUGAUGAUGCCUGAAGAGCCUUGGUUUUUUG [G47A C56G]  -1.29
14. GACCAAUCUGCCCUCAGAGCUCGAGAACAUCUUCGGAUGCAGAGGAAGCAGGUCUCGGUGGCGCGAUAGCGCCAACGUCCUCAACCUCCAAUGCAUCCCACCACAUGAUGAUGCCUGAAGAGCCUUGGUUUUUUG [G47A C53U U54C]  -1.11
15. GACCAAUCUGCCCUCAGAGCUCGAGAACAUCUUCGGAUGCAGAGGUGGCAGGCUUCGGUGGCGCGAUAGCGCCAACGUCCUCAACCUCCAAUGCAUCCCACCACAAGAUGAUGCCUGAAGAGCCUUGGUUUUUUG [A46U U106A]  -1.09
16. GACCAAUCUGCCCUCAGAGCUCGAGAACAUCUUCGGAUGCAGAGGUGGCAGGCUUCGGUGGCGCGAUAGCGCCAACGUCCUCAACCUCCAAUGCAUCCCACCACAUGAUGAUGCCUGAAUAGCCUUGGUUUUUUC [A46U G120U G135C]  -0.818
17. GACCAAUCUGCCCUCAGAGCUCGAGAACAUCUUCGGAUGCAGAGGAAGCAGGCUUCGGUGGCGCGAUAGCGCCAACGUCCUCUACCUCCAAUGCAUCCCACCACAUGAUGAUGCCUGAAGAGCCUUGGUUUUUUG [G47A A83U]  -0.645
18. GACCAAUCUGCCCUCAGAGCUCGAGAACAUCUUCGGAUGCAGAGGUGGCAGGCUUCGGUGGCGCGAUAGCGCCAACGUCCUCAACCUCCAAUGCAUCCCACCACAUGAUGAUGCCUGAAUAGCCUUGGUUUUUUG [A46U G120U]  -0.451
19. GACCAAUCUGCCCUCAGAGCUCGAGAACAUCUUCGGAUGCAGAGGUGGCAGGCUUCGGUGGCGCGAUAGCGCCAACGUCCUCAACCUCCAAUGCAUCCCACCACAAGAUGAUGCCUGAAGAGCGUUGGGUUUUUG [A46U U106A C124G U129G]  -0.0518
20. GACCAAUCUGCCCUCAGAGCUCGAGAACAUCUUCGGAUGCAGAGGAAGCAGGCUUUGGUGGCGCGAUAGCGCCAACGUCCUCAACCUCCAAUGCAUCCCACCACAUGAUGAUGCCUGAAGAGCCUUGGUUUUUUG [G47A C56U]  0.000278
21. GACCAAUCUGCCCUCAGAGCUCGAGAACAUCUUCGGAUGCAGAGGAAGCAGGCUUCGGUGGCGCGAUAGCGCCAACGUCCUCAACCUCCAAUGCAUCCCACCACAUGAUGAUGCCUGAAGUGCCUUGGUUUUUUG [G47A A121U]  1.38
